In PMC4414150, “Zfra activates memory Hyal-2+ CD3− CD19− spleen cells to block cancer growth, stemness, and metastasis in vivo” (Oncotarget, 2015):

Target: T1, Zfra16–31
T1 construct: Zfra, residues 16-31; also called Zfra peptide of amino acid #16–31; source: synthetic peptide (manual synthesis, Genemed Synthesis)
T1 peptide: FRAHTQKNAATPFLAN
Test: SDS-PAGE of the incubated peptide (ladder of polymers); peptides alone (2 mM in 100 μl PBS) or mixed together, room temperature, 24 hr (legend; the text says sterile MilliQ water, 48 hr); non-reducing and reducing gels; less polymerization in MilliQ water
Settings: both partners purified

B1: Zfra1–15 (peptide)
peptide: MSSRRSSSCKYCEQD
notes: Zfra, residues 1-15; also called Zfra peptide of amino acid #1–15; source: synthetic peptide (manual synthesis, Genemed Synthesis)
B1: binds.
